According to paper PMC5426849 (Molecular Biology of the Cell, 2017):
Non-standard residues stand in square brackets, D forms with d. No end group written: not given here. Flu = 5-carboxyfluorescein, coupled after removal of the final Fmoc group; pY = N[C@@H](Cc1ccc(OP(=O)(O)O)cc1)C(=O)O

T1: Nap4/SOCS7 SH2 domain, monomeric, cleaved from GST (human, UniProt O14512 400-509)
T1 sequence: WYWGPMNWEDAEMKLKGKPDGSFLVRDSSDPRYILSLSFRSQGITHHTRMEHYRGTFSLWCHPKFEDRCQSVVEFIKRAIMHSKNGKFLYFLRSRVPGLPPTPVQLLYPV

T2: purified recombinant full-length Vav2 (human, UniProt P52735 1-878)
T2 sequence: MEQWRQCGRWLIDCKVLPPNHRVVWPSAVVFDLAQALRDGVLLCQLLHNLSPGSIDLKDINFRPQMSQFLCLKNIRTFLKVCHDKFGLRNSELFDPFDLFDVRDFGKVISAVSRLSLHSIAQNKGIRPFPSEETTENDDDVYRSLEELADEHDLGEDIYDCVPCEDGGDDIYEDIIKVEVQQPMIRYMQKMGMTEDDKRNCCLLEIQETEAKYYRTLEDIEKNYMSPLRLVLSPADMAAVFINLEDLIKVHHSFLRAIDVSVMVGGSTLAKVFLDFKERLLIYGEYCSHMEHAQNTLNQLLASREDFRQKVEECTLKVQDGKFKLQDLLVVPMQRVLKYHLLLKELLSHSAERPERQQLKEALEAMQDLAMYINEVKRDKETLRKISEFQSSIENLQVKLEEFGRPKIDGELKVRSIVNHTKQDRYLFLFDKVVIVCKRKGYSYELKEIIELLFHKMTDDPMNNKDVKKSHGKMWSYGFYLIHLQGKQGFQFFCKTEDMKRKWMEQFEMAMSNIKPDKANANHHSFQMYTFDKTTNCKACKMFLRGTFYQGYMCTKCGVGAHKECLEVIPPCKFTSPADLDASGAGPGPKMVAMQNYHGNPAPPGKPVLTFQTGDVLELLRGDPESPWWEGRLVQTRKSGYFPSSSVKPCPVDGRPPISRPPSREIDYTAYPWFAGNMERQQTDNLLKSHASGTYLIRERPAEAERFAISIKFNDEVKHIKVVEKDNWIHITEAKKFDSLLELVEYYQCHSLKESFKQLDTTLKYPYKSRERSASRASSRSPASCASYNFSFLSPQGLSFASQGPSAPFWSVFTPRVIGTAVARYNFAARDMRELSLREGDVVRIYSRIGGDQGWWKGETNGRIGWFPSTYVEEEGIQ

T3: Vav2 SH2 domain, monomeric, cleaved from GST (human, UniProt P52735 673-767)
T3 sequence: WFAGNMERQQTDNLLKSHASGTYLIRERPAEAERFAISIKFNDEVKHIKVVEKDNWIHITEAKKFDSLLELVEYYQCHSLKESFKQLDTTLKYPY

B1: fluoresceinated cortactin phospho-Y421 peptide (peptide)
peptide: Flu-SSPI[pY]EDAA
B2: Arg SH2 domain, monomeric, cleaved from GST (domain or fragment)
chain: WYHGPVSRSAAEYLLSSLINGSFLVRESESSPGQLSISLRYEGRVYHYRINTTADGKVYVTAESRFSTLAELVHHHSTVADGLVTTLHYPA
B3: phosphorylated cortactin (natural protein)
chain: not shown
modifications: phosphotyrosine (confirmed by anti-phosphotyrosine Western blot; sites of this preparation not stated)
B4: fluoresceinated cortactin phospho-Y482 peptide (peptide)
peptide: Flu-EDDT[pY]DGYE

Key:
[1] = target: T1, Nap4/SOCS7 SH2 domain, monomeric, …; experiment: fluorescence polarisation
[2] = target: Fyn SH2 domain, monomeric, cleaved from GST (human, UniProt P06241 149-246); experiment: fluorescence polarisation
[3] = target: Brk SH2 domain, monomeric, cleaved from GST (human, UniProt Q13882 78-170); experiment: fluorescence polarisation
[4] = target: Src SH2 domain, monomeric, cleaved from GST (human, UniProt P12931 151-248); experiment: fluorescence polarisation
[5] = target: Nck1 SH2 domain, monomeric, cleaved from GST (human, UniProt P16333 282-376); experiment: fluorescence polarisation
[6] = target: B1; experiment: fluorescence polarisation
[7] = target: T2, purified recombinant full-length Vav2; experiment: pull-down
[8] = target: B2; experiment: fluorescence polarisation
[9] = target: T3, Vav2 SH2 domain, monomeric, cleaved …; experiment: fluorescence polarisation

B1
binding result [1]: binds | binding result [2]: binds | binding result [3]: binds | binding result [4]: binds | binding result [5]: binds

B2
fold greater affinity than for the phospho-Y466 peptide [6]: 2.5 fold

B3
Kd [7]: 1.5 ± 0.3 µM

B4
Kd [8]: > 5 µM | Kd [1]: > 5 µM | Kd [9]: > 5 µM | Kd [2]: > 5 µM | Kd [3]: > 5 µM | Kd [4]: > 5 µM | Kd [5]: > 5 µM
